Test results taken from publication PMC8563363.

How the values were obtained:
[1] = molecular target: trimeric cohesin (SMC1, SMC3-FLAG, SCC1(TEV)-Halo-His14) (human) (UniProt Q14683); assay: high-speed atomic force microscopy
NIPBL (human) = NIPBL (human) (UniProt Q6KC79); assay: high-speed atomic force microscopy

| stoichiometry N [1] | stoichiometry N (NIPBL (human)) | Substance |
| --- | --- | --- |
| 1 |  | NIPBL (from UniProt Q6KC79 1-2804) (natural protein) |
|  | 2 | NIPBL, Q6KC79 1-2804 |
